The record followed here is patent publication US20210130459A1 (YISSUM RESEARCH DEVELOPMENT COMPANY OF THE HEBREW …, published 2021).

For assay [1], the target named is human Nectin4-Ig (Nectin4-Fc fusion protein) (human) (UniProt Q96NY8). The assay can be described thus: microscale thermophoresis with fluorophore-labeled human Nectin4-Ig. Background: MST reads how a fluorescent partner responds to local heating, with and without ligand.
Assay [2] concerns the target T1, murine Nectin4 expressed on cells (murine, UniProt Q8R007 31-508).
T1 construct: whole, on cells; also called mNectin4
T1 sequence (looked up): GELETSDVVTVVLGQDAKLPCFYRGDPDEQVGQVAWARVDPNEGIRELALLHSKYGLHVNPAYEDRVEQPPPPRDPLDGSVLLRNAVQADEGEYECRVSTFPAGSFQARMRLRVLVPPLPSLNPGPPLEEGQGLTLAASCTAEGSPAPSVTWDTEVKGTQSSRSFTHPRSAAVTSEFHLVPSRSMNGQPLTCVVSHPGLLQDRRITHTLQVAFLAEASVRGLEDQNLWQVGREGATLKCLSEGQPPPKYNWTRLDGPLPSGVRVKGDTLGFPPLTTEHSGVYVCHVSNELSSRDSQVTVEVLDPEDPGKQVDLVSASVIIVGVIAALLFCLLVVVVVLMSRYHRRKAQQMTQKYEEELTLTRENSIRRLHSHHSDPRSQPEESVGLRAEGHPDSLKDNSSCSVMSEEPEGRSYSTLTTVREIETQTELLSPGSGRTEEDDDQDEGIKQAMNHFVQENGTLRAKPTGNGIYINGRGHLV
The assay can be described thus: FACS staining of RAJI cells transfected with murine Nectin4. The procedure: (A) Western blots of RAJI cells transfected with murine Nectin4 (indicated as mNectin4) and detected with commercial anti-murine Nectin4 mAb (Clone 356704 which doesn't work for flow cytometry). Expression was compared to RAJI cells expressing empty vector (indicated as Empty). Staining for hGAPDH was used as loading control. (B-C) FACS staining of RAJI cells transfected with murine Nectin4 (black line histograms). Cells were stained with 0.2 μg of (B) clone hNec4.01 or (C) clone hNec4.05.
RAJI cells were transfected with murine Nectin4 (black line histograms). First, RAJI cells transfected with murine Nectin4 lysates was used in Western blot assay with a commercial anti murine Nectin4 mAb (Clone 356704) in order to verify murine Nectin4 expression (A). Next, the cells were stained with 0.2 μg of (B) clone hNec4.01 or (C) clone hNec4.05.

For assay [3], the target named is T2, human Nectin4 expressed on cells (human, UniProt Q96NY8 32-510).
T2 construct: whole, on cells; also called PVRL4; native human Nectin-4
T2 sequence (looked up): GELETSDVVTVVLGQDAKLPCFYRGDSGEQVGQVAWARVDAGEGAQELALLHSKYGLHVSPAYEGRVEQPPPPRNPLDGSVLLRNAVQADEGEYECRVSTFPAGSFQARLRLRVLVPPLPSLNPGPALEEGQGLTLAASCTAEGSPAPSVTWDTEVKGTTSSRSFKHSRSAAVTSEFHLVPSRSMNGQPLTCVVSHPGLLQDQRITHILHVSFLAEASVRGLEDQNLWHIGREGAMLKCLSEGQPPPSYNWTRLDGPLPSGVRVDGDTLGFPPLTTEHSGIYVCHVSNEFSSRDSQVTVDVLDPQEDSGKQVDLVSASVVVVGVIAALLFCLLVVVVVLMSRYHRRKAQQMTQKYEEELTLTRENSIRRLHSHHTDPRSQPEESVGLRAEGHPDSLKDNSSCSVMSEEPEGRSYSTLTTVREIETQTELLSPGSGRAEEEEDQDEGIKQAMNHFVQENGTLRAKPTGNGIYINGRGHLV
Nature of the assay: FACS blocking assay, RAJI cells transfected with human Nectin4, 1 µg clone, then 3 µg Nectin1-Ig; blocked ligand Nectin1-Ig. The procedure: FIGS. 6A-6C Blocking of Nectin4-Nectin1 interactions. (A-B) FACS staining of RAJI cells transfected with human-Nectin4. Cells were pre-incubated with 1 μg of (A) clone hNec4.01, or (B) clone hNec4.05 and then incubated with 3 μg of Nectin1-Ig (black line histograms). Staining without blocking appears as gray line. Grey filled histograms are background control staining of secondary antibody only. (C) Mean Fluorescence Intensity (MFI) values of FACS staining of A and B.
For staining of human TIGIT-Ig or human Nectin1-Ig, cells were incubated on ice for 1 hour with 3 μg of TIGIT-Ig per 100,000 cells. Detection was performed with a secondary Alexa Fluor 647 anti-human (Jackson ImmunoResearch) for 30 min on ice. For blocking experiments cells were pre-incubated with 1 μg of the indicated antibody prior to the TIGIT-Ig or human Nectin1-Ig staining. In some cases, cells were incubated with 8 ug/ml of the indicated Ab together with human TIGIT-Ig or human Nectin-1-Ig (at 20 ug/ml). Detection of ligand binding was performed with a secondary Alexa Fluor 647 anti-human Ab (Jackson ImmunoResearch).
The ability to the anti-Nectin4 to block Nectin4-Nectin1 interactions was also determined. […] Cells were Pre-incubated with 1 μg of (FIG. 6A) clone hNec4.01 or (FIG. 6B) clone hNec4.05 and then incubated with 3 μg of Nectin1-Ig (black line). Staining without blocking appears as gray line. […]

Assay [4] has as its target T2, human Nectin4 expressed on cells. Nature of the assay: FACS titration on MDA-MD-453 cells. The procedure:
(§1) FIGS. 8A-8C Antibody clones hNec4.05 and hNec4.11 binding to cell surface Nectin-4. (A) Antibody binding to Nectin-4 expressed on the human cell line MDA-MD-453 was evaluated by FACS analysis. […] (B) Antibody binding to CHO cells transfected with Cynomolgus (Cyno)-Nectin-4 and analyzed as in A. (C) Antibody binding to CHO cells transfected with murine-Nectin-4 and analyzed as in A. ND—not detected.
(§2) Binding of murine anti-human Nectin-4 clones hNec4.05 and hNec4.11 to Nectin-4 expressed on the human cell line MDA-MD-453 was evaluated by FACS analysis. […] FIG. 8B depicts antibody binding to CHO cells transfected with Cynomolgus (Cyno)-Nectin-4 and FIG. 8C depicts antibody binding to CHO cells transfected with murine-Nectin-4. […] This may be important for pre-clinical studies of the Ab.

In assay [5] the target is T1, murine Nectin4 expressed on cells. The assay can be described thus: FACS titration on CHO cells transfected with murine Nectin-4, compared with MDA-MD-453 cells. The procedure:
as §1, §2

For assay [6], the target named is T2, human Nectin4 expressed on cells. The assay can be described thus: FACS titration (20-0.01 nM) on the human cell line titled 'MDA-MD-543' on the sheet (MDA-MD-453 in the legend). The procedure:
as §1, §2

For orientation: Kd means the equilibrium constant for the complex coming apart. Higher therefore signals lower affinity.

B1: monoclonal antibody hNec4.01 (antibody, IgG1, V domains shown)
VH: EVQLQQSGPELVKPGASVKIACRASGYTFTAYNIHWVSQRHGKSLEWIGYIYPNNGGSGYNQKFMNKATLTVDHSSNTAYMELRSLTSEDSAVYYCAIFDYDEAWFIYWGQGTLVTVSA
VL: ENVLTQSPEIMSASPGEEVTMTCSASSSVSYMHWFQQKSTISPKLWIYDTSKLASGVPGRFSGSGSGKSYSLTIRNMEAEDVATYYCFQGSGSPYTFGGGTKLEIK
notes: also called Nectin4.01; Clone 1
Regarding B1, the Kd in assay [1] came to 0.107 nM. Also, the binding result in assay [2] is reported as “no binding (tested: 0.2 µg)”; in assay [3] it was “binds”.

B2: monoclonal antibody hNec4.05 (antibody, IgG1, V domains shown)
VH: QVQLQQSGPELVKPGASVRISCKASGYTFTTYYIHWVKQRPGQGLEWIGWIYPGNVNTKNNEKFKVKATLTADKSSSTAYMQLSSLTSEDSAVYFCARSNPYVMDYWGQGTSVTVSS
VL: SIVMTQTPKFLLVSAGDRVTITCKASQSVSNDVAWYQQKPGQSPKLLIYYASNRYTGVPDRFTGSGYGTDFTFTISAVQAEDLAVYFCQQDYSSPYTFGGGTKLEIK
notes: also called Nectin4.05; Clone 5
For B2, the Kd in assay [1] turned out to be 0.272 nM. Besides, the binding result in assay [2] is given as “no binding (tested: 0.2 µg)”; in assay [3] it was “binds”.

B3: chimeric clone hNec4.05hIgG1 (antibody, V domains shown)
VH: QVQLQQSGPELVKPGASVRISCKASGYTFTTYYIHWVKQRPGQGLEWIGWIYPGNVNTKNNEKFKVKATLTADKSSSTAYMQLSSLTSEDSAVYFCARSNPYVMDYWGQGTSVTVSS
VL: SIVMTQTPKFLLVSAGDRVTITCKASQSVSNDVAWYQQKPGQSPKLLIYYASNRYTGVPDRFTGSGYGTDFTFTISAVQAEDLAVYFCQQDYSSPYTFGGGTKLEIK
notes: also called human IgG1 chimeric Ab clone hNec4.05; chimeric version of hNec4.05
As for B3, the binding result in assay [4] is “binds”.

B4: chimeric clone hNec4.11hIgG1 (antibody, V domains shown)
VH: QVQLQQSGPELVKPETSVKISCKASGYTFTSYYIHWVKQRPGQGLEWIGWIYPGNVNTKYNERFKGKATLTADKSSNTAHMQLTSLTSEDSAVYFCARSNPYVMDYWGQGTSVTVSS
VL: SIVMTQTPKFLLVSAGDRVTITCKASQSVNNDVAWYQQKPGLSPELLMYYASNRFTGVPDRFTGSGYGTDFTFTISSVQAEDLAIYFCQQAYRSPYTFGGGTKLEIQ
notes: also called human IgG1 chimeric Ab clone hNec4.11; chimeric version of hNec4.11
Regarding B4, the binding result in assay [4] was “binds”.

B5: monoclonal antibody hNec4.11 (antibody, V domains shown)
VH: QVQLQQSGPELVKPETSVKISCKASGYTFTSYYIHWVKQRPGQGLEWIGWIYPGNVNTKYNERFKGKATLTADKSSNTAHMQLTSLTSEDSAVYFCARSNPYVMDYWGQGTSVTVSS
VL: SIVMTQTPKFLLVSAGDRVTITCKASQSVNNDVAWYQQKPGLSPELLMYYASNRFTGVPDRFTGSGYGTDFTFTISSVQAEDLAIYFCQQAYRSPYTFGGGTKLEIQ
notes: also called Nectin4.11; clone 11
Regarding B5, the “fold EC50 against the EC50 for the human target” value in assay [5] was roughly 10 fold. The binding result in assay [6] was “binds”.
